± gives the uncertainty stated by the source.
Assay: self-splicing fitness, log relative to wild type (ln ratio); higher = more splicing; Tetrahymena group I intron in knt gene, E. coli kanamycin selection, DiMSum; sequences stand for … in CUCUCU…GGAGGGAAAAGUUAUCAGGCAUGCACCUGGUAGCUAGUCUUUAAACCAAUAGAUUGCAUCGGUUUAAAAGGCAAGACCGUCAAAUUGCGGGAAAGGGGUCAACAGCCGUUCAGUACCAAGUCUCAGGGGAAACUUUGAGAUGGCCUUGCAAAGGGUAUGGUAAUAAGCUGACGGACAUGGUCCUAACCACGCAGCCAAGUCCUAAGUCAACAGAUCUUCUGUUGAUAUGGAUGCAGUUCACAGACUAAAUGUCGGUCGGGGAAGAUGUAUUCUUCUCAUAAGAUAUAGUCGGACCUCUCCUUAAUGGGAGCUAGCGGAUGAAGUGAUGCAACACUGGAGCCGCUGGGAACUAAUUUGUAUGCGAAAGUAUAUUGAUUAGUUUUGGAGUACUCGUGGUCG
Method in brief: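 Six replicate transformations of E. coli BL21(DE3) with a pET-22b(+) library were grown overnight at 37°C or 30°C. The library randomised all eight P1ex-region intron nucleotides, the intron lying in the knt kanamycin-resistance gene, and plates were LB agar with or without 25 μg/mL kanamycin plus 100 μg/mL carbenicillin, 50 μM IPTG and 0.2% rhamnose. Pooled colonies were amplicon-sequenced on an Illumina HiSeq 2500, and fitness is the DiMSum error-weighted combination of wild-type-normalised replicate fold changes, kanamycin versus none.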

Sequence	self-splicing fitness (ln) (30 °C)	self-splicing fitness (ln) (37 °C)
CUGAAGCAAUAUUACGCGGU	-1.86 ± 0.08	-0.746 ± 0.081
CUGAAGCAAUAUUACGCUAG	-1.1 ± 0.096	-0.802 ± 0.099
CUGAAGCAAUAUUACGGCCU	-4.04 ± 0.26	-2.43 ± 0.33
CUGAAGCAAUAUUACGGCGA	-3.53 ± 0.27	–
CUGAAGCAAUAUUACGGCGU	-3.6 ± 0.41	-2.98 ± 0.47
CUGAAGCAAUAUUACGGCUG	-0.126 ± 0.074	0.668 ± 0.11
CUGAAGCAAUAUUACGGGGG	-1.46 ± 0.14	-1.28 ± 0.18
CUGAAGCAAUAUUACGGGUU	-3.71 ± 0.21	-2.77 ± 0.22
CUGAAGCAAUAUUACGGUUG	-0.0856 ± 0.068	0.139 ± 0.096
CUGAAGCAAUAUUACGUAAU	-2.87 ± 0.24	-2.17 ± 0.5
CUGAAGCAAUAUUACGUAGG	-3.21 ± 0.18	-2.36 ± 0.25
CUGAAGCAAUAUUACGUCCU	-3.45 ± 0.23	-2.39 ± 0.23
CUGAAGCAAUAUUACGUGAC	-1.24 ± 0.086	-0.353 ± 0.1
CUGAAGCAAUAUUACGUUGU	-4.42 ± 0.13	-2.28 ± 0.14
CUGCAGCAAUAUUACGACUA	-1.58 ± 0.13	-1.09 ± 0.12
CUGCAGCAAUAUUACGAGAC	-2.19 ± 0.16	-1.31 ± 0.16
CUGCAGCAAUAUUACGAGUC	-3.68 ± 0.23	-2.59 ± 0.41
CUGCAGCAAUAUUACGAGUG	-0.52 ± 0.053	0.112 ± 0.087
CUGCAGCAAUAUUACGAGUU	-3.55 ± 0.21	-2.83 ± 0.28
CUGCAGCAAUAUUACGAUUU	-4.06 ± 0.17	-1.7 ± 0.14
CUGCAGCAAUAUUACGCACA	-2.82 ± 0.19	-1.48 ± 0.19
CUGCAGCAAUAUUACGCGAC	-2.19 ± 0.14	-0.91 ± 0.12
CUGCAGCAAUAUUACGCGAG	-3.67 ± 0.17	-1.98 ± 0.15
CUGCAGCAAUAUUACGGCCG	-0.291 ± 0.12	-0.672 ± 0.14

Sequence	self-splicing fitness (ln) (30 °C)	self-splicing fitness (ln) (37 °C)
CUGCAGCAAUAUUACGGCUA	-2.6 ± 0.19	-0.78 ± 0.17
CUGCAGCAAUAUUACGGGAG	-2.74 ± 0.11	-1.79 ± 0.12
CUGCAGCAAUAUUACGGGUG	-0.771 ± 0.049	-0.0809 ± 0.058
CUGCAGCAAUAUUACGGUCA	-3.07 ± 0.23	-2.18 ± 0.16
CUGCAGCAAUAUUACGUAAU	-4.74 ± 0.2	-2.04 ± 0.16
CUGCAGCAAUAUUACGUACU	-2.89 ± 0.2	-1.69 ± 0.21
CUGCAGCAAUAUUACGUAGU	-4.54 ± 0.45	-2.5 ± 0.28
CUGCAGCAAUAUUACGUCUA	-1.64 ± 0.12	-0.709 ± 0.15
CUGGAGCAAUAUUACGAAAU	-3.11 ± 0.22	-2.72 ± 0.29
CUGGAGCAAUAUUACGAACG	-0.869 ± 0.15	0.129 ± 0.16
CUGGAGCAAUAUUACGAAUG	-1.88 ± 0.12	0.0741 ± 0.15
CUGGAGCAAUAUUACGACAA	-2.11 ± 0.2	-1.7 ± 0.2
CUGGAGCAAUAUUACGACAU	-2.19 ± 0.019	-1.3 ± 0.036
CUGGAGCAAUAUUACGACCG	-0.607 ± 0.082	0.106 ± 0.14
CUGGAGCAAUAUUACGAUAC	-2.26 ± 0.22	–
CUGGAGCAAUAUUACGAUGU	-3.26 ± 0.16	-2.97 ± 0.23
CUGGAGCAAUAUUACGAUUU	-4.07 ± 0.46	-2.01 ± 0.34
CUGGAGCAAUAUUACGCAGU	–	-1.99 ± 0.43
CUGGAGCAAUAUUACGCGGA	-1.86 ± 0.24	–
CUGGAGCAAUAUUACGGAGC	-3.08 ± 0.34	-2.38 ± 0.38
CUGGAGCAAUAUUACGGAUU	-3.29 ± 0.43	-2.83 ± 0.34
CUGGAGCAAUAUUACGGCAA	-2.52 ± 0.25	-2.75 ± 0.3
CUGGAGCAAUAUUACGGCUC	-2.58 ± 0.3	–
CUGGAGCAAUAUUACGGUCG	-1.2 ± 0.087	-0.266 ± 0.12

Source: the supplement of paper PMC7877785
